The text below walks through data of PMC3222294.

For this data set, the target named is T1, RIG-I (ΔCARDs) (human, UniProt O95786 230-925, del1-229).
T1 sequence: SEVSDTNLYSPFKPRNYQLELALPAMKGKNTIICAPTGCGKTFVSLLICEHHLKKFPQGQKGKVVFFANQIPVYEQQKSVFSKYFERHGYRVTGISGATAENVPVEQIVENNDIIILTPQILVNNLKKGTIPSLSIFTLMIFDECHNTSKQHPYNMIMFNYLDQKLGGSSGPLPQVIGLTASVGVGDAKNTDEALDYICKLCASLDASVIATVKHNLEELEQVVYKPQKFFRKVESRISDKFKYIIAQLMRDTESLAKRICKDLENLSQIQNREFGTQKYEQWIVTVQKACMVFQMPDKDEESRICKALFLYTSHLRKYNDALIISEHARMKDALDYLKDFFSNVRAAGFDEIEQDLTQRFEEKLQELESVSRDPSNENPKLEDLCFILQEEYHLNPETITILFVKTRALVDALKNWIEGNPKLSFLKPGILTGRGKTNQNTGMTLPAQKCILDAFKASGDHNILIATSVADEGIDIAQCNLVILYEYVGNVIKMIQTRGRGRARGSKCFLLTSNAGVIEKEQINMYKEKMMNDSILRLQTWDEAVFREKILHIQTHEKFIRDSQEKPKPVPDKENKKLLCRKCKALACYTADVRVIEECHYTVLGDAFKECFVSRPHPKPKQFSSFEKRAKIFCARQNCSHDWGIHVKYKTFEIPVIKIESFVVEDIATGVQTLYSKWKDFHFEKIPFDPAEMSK
Kind of data set: X-ray crystallography.

B1: dsRNA10 (5'OH palindromic 10-mer duplex) (dsRNA)
RNA 1: GCGCGCGCGC
RNA 2: GCGCGCGCGC
As to B1, the binding result is given as “binds”.
